Some results are limits rather than exact numbers.

Series [1] concerns the target T1, Fur (Bacillus subtilis) (UniProt P54574).
T1 sequence: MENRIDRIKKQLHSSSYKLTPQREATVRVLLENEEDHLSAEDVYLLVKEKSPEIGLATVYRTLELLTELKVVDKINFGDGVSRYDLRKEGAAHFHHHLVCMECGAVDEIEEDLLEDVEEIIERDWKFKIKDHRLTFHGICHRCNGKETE
Put plainly: EMSA. The note with it: EMSA with 1 mM MnCl2; ~1 fmol 32P-labelled probe (B, C) or ~180 ng DNA with ethidium bromide stain, 5% native PAGE (A); remaining buffer, pH and temperature …. A general note: Mobility shift assays separate free from complexed probe on a gel.

For series [2], the system named is Fur (Bacillus subtilis). Put plainly: EMSA. The note with it: EMSA with 1 mM MnCl2; ~1 fmol 32P-labelled probe (B, C) or ~180 ng DNA with ethidium bromide stain, 5% native PAGE (A); remaining buffer, pH and temperature ….

As a reminder, the Kd is a measure of binding affinity in units of concentration. Higher therefore signals lower affinity. “TAGACCTTTGTCCTGCACAGAGGTCTTTTTTTGTTACAGTTTTATAGTACTTTTATTTCATTTTCGTAAAATGTAACAAAATTACTTGACGTAAACAAGTTATGTATATATACTAGCTTACATTAAGTAAGTGATAACATTTATCAAGGAGGATAAAATGAATAAATCATTTGAAATTGGCACATTACTTTTAAGAG (double strand) [catD promoter probe (-121 to +76)]” returned a Kd with Fur (Bacillus subtilis) [1] of 0.7 µM. Turning to “catD promoter 323-bp HindIII fragment (-155 to +168)”, in the series on Fur (Bacillus subtilis) [2], the K half came to 500 nM. In turn, catD ORF probe (+137 to +278) had a binding in the series on Fur (Bacillus subtilis) [2] greater than 2 µM.

Regarding “catD ORF 218-bp HindIII fragment (+169 to +386)”, in the series on Fur (Bacillus subtilis) [2], the binding is greater than 3 µM. In turn, catD promoter probe (-121 to +76) showed a Kd with Fur (Bacillus subtilis) [2] of 0.7 µM.
